From patent publication US7329737 (DYAX, dated 2008) come the findings set out here.

This assay deals with T1, hK1 (human tissue kallikrein 1), recombinant (human, UniProt P06870 25-262).
T1 construct: Expressed in P. pastoris from KLK1 cDNA and purified; enzymatically active; also called KLK1; Recombinant (Pichia) Kallikrein
In words: SPR.

B1: M0124-G12 (Fab, V domains shown)
VH: EVQLLESGGGLVQPGGSLRLSCAASGFTFSHYWMRWVRQAPGKGLEWVSSIGSSGGMTKYADSVKGRFTISRDNSKNTLYLQMNSLRAEDTAVYYCARALRWRAFDIWGQGTMVTVSS
VL: DIQMTQSPSSVSASVGDRVTITCRASQGISSWLAWYQQKPGKAPKLLIYAASSLQSGVPSRFSGSGSGTDFTLTISSLQPEDFATYYCQQANSFPLTFGGGTKVEIKR
The Kd is the free concentration of one partner at which half of the binding sites on the other are occupied at equilibrium, for simple one-to-one binding. As a reminder, the koff is the first-order rate constant of dissociation. The term kon denotes the rate constant with which the complex forms. Consider B1, for which the Kd stood at 0.0172 µM, the koff was 0.0064 s⁻¹ and the kon was 372000 M⁻¹ s⁻¹.

B2: M0095-G09 (Fab, V domains shown)
VH: EVQLLESGGGLVQPGGSLRLSCAASGFTFSNYNMHWVRQAPGKGLEWVSVIYPSGGYTVYADSVKGRFTISRDNSKNTLYLQMNSLRAEDTAVYYCARRGNWGGIDYWGQGTLVTVSS
VL: DIQMTQSPSSLSASVGDRVTITCRASQSISNWLAWYQQKPGKAPKLLIYKASTLQTGVPSRFSGSGSGTEFSLTISSLQPDDFATYYCQQTYSAPFNFGPGTKVDIKR
For B2, the Kd was 0.0186 µM, the koff stood at 0.0934 s⁻¹ and the kon came out at 5.01e+06 M⁻¹ s⁻¹.

B3: M0116-C09 (Fab, V domains shown)
VH: EVQLLESGGGLVQPGGSLRLSCAASGFTFSNYKMHWVRQAPGKGLEWVSSIYPSGGWTVYADSVKGRFTISRDNSKNTLYLQMNSLRAEDTAVYYCATGYSSTWGAFDIWGQGTMVTVSS
VL: AQSALTQPPSVSVSPGQTASITCFGDKLGDKYGSWYQQKPGQSPVLVLYQYWKRPSGIPERFSGSNSGNTATLTINVTQTMDEADYYCQAWDSNTVVFGGGTKLTVLG
Regarding B3, the Kd amounted to 0.0182 µM, the koff was determined as 0.00947 s⁻¹ and the kon stood at 520000 M⁻¹ s⁻¹.

B4: M0128-F11 (Fab, V domains shown)
VH: EVQLLESGGGLVQPGGSLRLSCAASGFTFSFYVMGWVRQAPGKGLEWVSWIGPSGGRTWYADSVKGRFTISRDNSKNTLYLQMNSLRAEDTAVYYCARDRGWYGIDVWGQGTTVTVSS
VL: DIQMTQSPSSLSASVGDRVTITCRASQYISTYLAWYQQKPGKAPKLLIYKASDLESGVPSRFSGSGSGTEFTLTINSLQPDDFATYYCQQYNTYWTFGHGTKVEIKR
B4: the Kd was 0.0183 µM, the koff was 0.0143 s⁻¹ and the kon stood at 780000 M⁻¹ s⁻¹.

B5: M0137-G10 (Fab, V domains shown)
VH: EVQLLESGGGLVQPGGSLRLSCAASGFTFSRYVMHWVRQAPGKGLEWVSYISPSGGVTKYADSVKGRFTISRDNSKNTLYLQMNSLRAEDTAVYYCAKALYPGMGYYYGMDVWGQGTTVTVSS
VL: DIQMTQSPSSLSASVGDRVTITCRTSQTVSTFLNWYQQKPGTAPKLLIYAASRLQSGVPSRFSGSGSETDFTLTISRLQPEDFATYYCQQSFTSPRTFGLGTKVEIKR
As for B5, the Kd came out at 0.0188 µM, the dissociation rate constant (koff) was found to be 0.00513 s⁻¹ and the kon came out at 272000 M⁻¹ s⁻¹.

B6: M0117-C04 (Fab, V domains shown)
VH: EVQLLESGGGLVQPGGSLRLSCAASGFTFSHYLMFWVRQAPGKGLEWVSSIWPSGGNTKYADSVKGRFTISRDNSKNTLYLQMNSLRAEDTAVYYCARPAYYYAMDVWGQGTTVTVSS
VL: DIQMTQSPLSLSASVGDRVTITCRASQTFNNYLNWYQQKPGKAPKLLIYAASTLQSGVPSRFSGSGSGTDFTLTISSLQPEDFATYYCQQANSFPFTFGPGTKVDIKR
On to B6, for which the dissociation constant (Kd) was 0.0166 µM, the off-rate (koff) was determined as 0.00334 s⁻¹ and the kon was found to be 201000 M⁻¹ s⁻¹.

B7: M0106-E12 (Fab, V domains shown)
VH: EVQLLESGGGLVQPGGSLRLSCAASGFTFSHYNMTWVRQAPGKGLEWVSSIWPSGGATRYADSVKGRFTISRDNSKNTLYLQMNSLRAEDTAVYYCARTSRFYGMDVWGQGTTVTVSS
VL: DIQMTQSPGTLSLSPGERATLSCRPSQSVYSNYLAWYQQKPGQAPRLLIYGASTRATGIPDRFSGSASGTDFTLTISRLEPEDFAVYYCQQYGNSYTFGPGTKVDIKR
Turning to B7, the Kd was determined as 0.0199 µM, the koff was 2.44 s⁻¹ and the kon was determined as 1.23e+08 M⁻¹ s⁻¹.

B8: M0131-C08 (Fab, V domains shown)
VH: EVQLLESGGGLVQPGGSLRLSCAASGFTFSWYSMTWVRQAPGKGLEWVSSISPSGGATKYADSVKGRFTISRDNSKNTLYLQMNSLRAEDTAVYYCARGGAASLPFDYWGQGTLVTVSS
VL: DIQMTQSPSSVSASVGDRVTITCRASQDVLVSFAWYQQRPGTAPKLLIYAASHLHPGVPSRFSASGSGTDFTLTINGLQPEDFATYYCQQARSFPHTFGQGTRLEKKR
On to B8, for which the Kd is 0.0177 µM, the dissociation rate constant (koff) turned out to be 0.00466 s⁻¹ and the kon worked out at 264000 M⁻¹ s⁻¹.

B9: M0131-D12 (Fab, V domains shown)
VH: EVQLLESGGGLVQPGGSLRLSCAASGFTFSWYNMYWVRQAPGKGLEWVSYIVPSGGATHYADSVKGRFTISRDNSKNTLYLQMNSLRAEDTAVYYCARALRGYSYGPRGYYYYGMDVWGQGTTVTVSS
VL: AQSALTQPPSVSVAPGQTASISCSGNILDNSYASWFQQKPGQSPVMVIHRDNKRPSGIPERFSGSTSGNTATLTISGTQAVDEADYYCQAWDRTTGVFGTGTRLTVLR
For B9, the Kd was found to be 0.0184 µM, the koff came to 0.00193 s⁻¹ and the kon amounted to 105000 M⁻¹ s⁻¹.

B10: M0128-A06 (Fab, V domains shown)
VH: EVQLLESGGGLVQPGGSLRLSCAASGFTFSHYKMNWVRQAPGKGLEWVSYIGSSGGKTGYADSVKGRFTISRDNSKNTLYLQMNSLRAEDTALYYCARVGVWYGMDVWGQGTLVTVSS
VL: AQSALTQPPSLSVSAGQTATITCSPSGGGLRNKYVSWYQQRPGQSPFLVIYKDAERPSGIPERFSGSNFGNTATLTIGGTQAMDEADFYCLAWDSTTRVFGGGTKLTVLS
As to B10, the Kd is 0.0184 µM, the koff was determined as 0.00612 s⁻¹ and the kon was found to be 332000 M⁻¹ s⁻¹.

B11: M0131-A03 (Fab, V domains shown)
VH: EVQLLESGGGLVQPGGSLRLSCAASGFTFSWYTMGWVRQAPGKGLEWVSVIYPSGGMTKYADSVKGRFTISRDNSKNTLYLQMNSLRAEDTAVYYCARTSGGTPWGFWGQGTLVTVSS
VL: AQYELTQPASVSGSPGQSITISCTGTNTDVGGYNYVSWYQQYPGKAPKLMIYEVNHRPSGVSNRFSGSKSGNTASLTISGLQAEDEADYYCSSYTYRNTYVFGTGTKVTVLG
With B11, the Kd was 0.0174 µM, the koff stood at 0.046 s⁻¹ and the kon worked out at 2.65e+06 M⁻¹ s⁻¹.

B12: M0094-F03 (Fab, V domains shown)
VH: EVQLLESGGGLVQPGGSLRLSCAASGFTFSWYQMSWVRQAPGKGLEWVSSIYPSGGATKYADSVKGRFTISRDNSKNTLYLQMNSLRAEDTAMYYCARMGLHHSFDYWGQGTLVTVSS
VL: DIQMTQSPGTLSLSLGETATLSCRASQTVGGSYLAWYRQKPGQAPSLLIYAASNRAPGIPDRFSGSGSGTDFTLTISSLQSEDFAVYYCQQYGSSMYTFGQGTILEIKR
On to B12, for which the Kd was determined as 0.0167 µM and the koff was 0.00644 s⁻¹.

B13: M0099-D05 (Fab, V domains shown)
VH: EVQLLESGGGLVQPGGSLRLSCAASGFTFSNYIMSWVRQAPGKGLEWVSSIWPSGGHTRYADSVKGRFTISRDNSKNTLYLQMNSLRAEDTAVYYCARAGSYYAGDYWGQGTLVTVSS
VL: DIQMTQSPGTLSLSPGERATLSCRASQTVSSNYLAWYQQKPGLAPRLLIYGVSNRAAGIPDRFSGRGSGTDFTLIINRLEPEDFAVYYCQHYGSSAFTFGRGTKLEIER
Consider B13, for which the Kd came out at 0.0175 µM, the koff amounted to 0.00578 s⁻¹ and the kon is 331000 M⁻¹ s⁻¹.
